# Data: article PMC10839789, “More indications for redox-sensitive cysteine residues of the Arabidopsis 5-aminolevulinate dehydratase” (Frontiers in Plant Science, 2023)
# B1: recombinant 6xHis-ALAD (Arabidopsis thaliana 5-aminolevulinic acid dehydratase 1, mature, wild type) (enzyme, UniProt Q9SFH9 53-430, looked up)
# chain: ASESGNGHAKKLGMSDAECEAAVAAGNVPEAPPVPPKPAAPVGTPIIKPLNLSRRPRRNRASPVTRAAFQETDISPANFVYPLFIHEGEEDTPIGAMPGCYRLGWRHGLVQEVAKARAVGVNSIVLFPKVPEALKNSTGDEAYNDNGLVPRTIRLLKDKYPDLIIYTDVALDPYSSDGHDGIVREDGVIMNDETVHQLCKQAVSQARAGADVVSPSDMMDGRVGAIRSALDAEGFQNVSIMSYTAKYASSFYGPFREALDSNPRFGDKKTYQMNPANYREALIEAREDEAEGADILLVKPGLPYLDIIRLLRDKSPLPIAAYQVSGEYSMIKAGGVLKMIDEEKVMMESLMCLRRAGADIILTYFALQAATCLCGEKR
# notes: ALAD1 (HEMB1, AT1G69740), Arabidopsis thaliana, cloned without the transit peptide (aa 1-52, ChloroP); mature ALAD1 is Ala53 to Arg430 of the 430-residue precursor; pET28a(+); also called ALAD1; ALAD(WT); source: E. coli Rosetta (DE3), purified (Ni-NTA agarose); not shown: His6, N-terminal, kept
# B2: recombinant 6xHis-ALAD(C424S/C426S) (enzyme, Arabidopsis thaliana, UniProt Q9SFH9 53-430, looked up)
# chain: ASESGNGHAKKLGMSDAECEAAVAAGNVPEAPPVPPKPAAPVGTPIIKPLNLSRRPRRNRASPVTRAAFQETDISPANFVYPLFIHEGEEDTPIGAMPGCYRLGWRHGLVQEVAKARAVGVNSIVLFPKVPEALKNSTGDEAYNDNGLVPRTIRLLKDKYPDLIIYTDVALDPYSSDGHDGIVREDGVIMNDETVHQLCKQAVSQARAGADVVSPSDMMDGRVGAIRSALDAEGFQNVSIMSYTAKYASSFYGPFREALDSNPRFGDKKTYQMNPANYREALIEAREDEAEGADILLVKPGLPYLDIIRLLRDKSPLPIAAYQVSGEYSMIKAGGVLKMIDEEKVMMESLMCLRRAGADIILTYFALQAATSLSGEKR
# notes: ALAD1 (HEMB1, AT1G69740), Arabidopsis thaliana, mature form without the transit peptide (aa 1-52), Ala53 to Arg430; made by site-directed mutagenesis of pET28a(ALAD); also called ALAD(C424/C426); source: E. coli Rosetta (DE3), purified (Ni-NTA agarose); not shown: His6, N-terminal, kept
# Assays:
# [1] = target: the molecule itself; test: non-reducing SDS-PAGE with immunoblot (disulfide-linked oligomers); ALAD oxidised with diamide, dialysed, then 1 uM ALAD incubated 30 min with diamide, DTT (0.1-10 mM) or 0.1 mM DTT with TRX-f1/TRX-m1 (6.7 uM) or BSA (2 uM); free Cys blocked with NEM; non-reducing 10% SDS-PAGE; anti-His blot
# [2] = target: the molecule itself; test: non-reducing SDS-PAGE with immunoblot (disulfide-linked oligomers); recombinant ALAD preincubated 15 min at RT with 1 mM diamide (oxidising) or untreated; non-reducing 12% SDS-PAGE; anti-His blot
Protein,binding result [1],binding result [2]
B1,binds,
B2,,binds
